Laboratory results from patent US20250154198A1, “PEPTIDE INHIBITORS OF INTERLEUKIN-23 RECEPTOR” (Zealand Pharma A/S, priority 2021, published 2025).
*1 amine or outer side, *2 acyl side, *3 side chain or, on linkers, in order; H or OH if unused. Bridges are numbered along the chain shown (N, C = ends). Primed or numbered codes have the meaning given here. Where no end group is shown, it is not given here. [ ]: non-standard residue; d: D form. 4‑Aminomethyl‑phenylacetyl = 4-aminomethyl-phenylacetyl unit, its amine closes the lactam, O=C(Cc1ccc(CN[*:1])cc1)[*:2]; 1,3‑dibromopropan‑2‑one = linker (CAS 816-39-7) joining two Cys as 1,3-dithio-propan-2-one bridge -SCH2C(=O)CH2S-; Q(pyrrolidin)″ = (2S)-2-amino-5-oxo-5-pyrrolidin-1-yl-pentanoic acid, O=C(CC[C@H](N[*:1])C(=O)[*:2])N1CCCC1; 1,3‑dibromopropan‑2‑one(3) = linker giving 1,3-dithio-propan-2-one bridge -SCH2C(=O)CH2S- between Cys; 4‑Aminomethyl‑phenylacetyl″ = N-terminal cap residue, O=C(Cc1ccc(CN[*:1])cc1)[*:2]; Ala(quinolin-3-yl) = N[C@@H](Cc1cnc2ccccc2c1)C(=O)O; Trp(7-F) = N[C@@H](Cc1c[nH]c2c(F)cccc12)C(=O)O; Phe(3,4-Me2) = Cc1ccc(C[C@H](N)C(=O)O)cc1C; 2Nal = N[C@@H](Cc1ccc2ccccc2c1)C(=O)O; AEF = NCCOc1ccc(C[C@H](N)C(=O)O)cc1; 3Pal = N[C@@H](Cc1cccnc1)C(=O)O; d3Pal = N[C@H](Cc1cccnc1)C(=O)O; αMeL = CC(C)C[C@](C)(N)C(=O)O; αMeV = CC(C)[C@](C)(N)C(=O)O; 3Amb = NCc1cccc(C(=O)O)c1; Dab = NCC[C@H](N)C(=O)O

T1: human IL-23R endogenously expressed on DB cells (CRL-2289) (human, UniProt Q5VWK5 24-629)
T1 sequence (looked up): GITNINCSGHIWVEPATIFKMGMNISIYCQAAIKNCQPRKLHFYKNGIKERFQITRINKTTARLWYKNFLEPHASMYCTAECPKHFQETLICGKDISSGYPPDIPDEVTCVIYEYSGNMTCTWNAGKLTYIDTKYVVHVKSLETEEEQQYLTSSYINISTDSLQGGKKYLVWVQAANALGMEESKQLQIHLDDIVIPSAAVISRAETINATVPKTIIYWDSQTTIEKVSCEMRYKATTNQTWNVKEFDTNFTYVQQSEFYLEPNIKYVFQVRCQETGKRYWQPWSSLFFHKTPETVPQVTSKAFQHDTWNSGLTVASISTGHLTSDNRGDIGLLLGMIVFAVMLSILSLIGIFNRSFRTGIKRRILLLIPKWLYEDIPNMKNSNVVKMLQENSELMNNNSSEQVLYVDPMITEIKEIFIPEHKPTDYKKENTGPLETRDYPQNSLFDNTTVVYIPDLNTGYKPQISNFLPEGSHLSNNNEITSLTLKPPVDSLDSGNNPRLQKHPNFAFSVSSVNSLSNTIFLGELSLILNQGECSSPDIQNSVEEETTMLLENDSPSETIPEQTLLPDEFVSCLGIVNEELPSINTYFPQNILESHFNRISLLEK


Biological target: T1, human IL-23R endogenously expressed on …
Assay: cell-based or functional assay

Binder	IC50 (pSTAT3)
[4‑Aminomethyl‑phenylacetyl]SE[Trp(7-F)]Q[Dab][AEF][2Nal][αMeL]E[Dab]-NH2 (lactam N-10, 3-6; SMILES CC(C)C[C@]1(C)NC(=O)[C@H](Cc2ccc3ccccc3c2)NC(=O)[C@H](Cc2ccc(OCCN)cc2)NC(=O)[C@@H]2CCNC(=O)CC[C@H](NC(=O)[C@H](CO)NC(=O)Cc3ccc(cc3)CNC(=O)CC[C@@H](C(=O)N[C@@H](CCN)C(N)=O)NC1=O)C(=O)N[C@@H](Cc1c[nH]c3c(F)cccc13)C(=O)N[C@@H](CCC(N)=O)C(=O)N2) [Compound 139]	30.2 nM
[3Amb]SCWQC[AEF][2Nal][αMeL]ER[d3Pal]-NH2 (lactam (positions not given here); linker 3-6 via 1,3‑dibromopropan‑2‑one(3); not fully specified (bridges); printed as [(3-Aminomethyl)benzoyl](1c)*SC(2a)WQC(2a)][Y(2-aminoethoxy)][2-Nal][2-Me-Leu]E(1c)R[{d}[3-(3-Pyridyl)-Ala]]-[NH2]) [Compound 150]	14.3 nM
[3Amb]SCWQC[AEF][2Nal][αMeL]E[Dab][3Pal]-NH2 (lactam (positions not given here); linker 3-6 via 1,3‑dibromopropan‑2‑one(3); not fully specified (bridges); printed as [(3-Aminomethyl)benzoyl](1c)*SC(2a)WQC(2a)[Y(2-aminoethoxy)][2-Nal][2-Me-Leu]E(1c)[Dab][3-(3-Pyridyl)-Ala]-[NH2]) [Compound 148]	0.0868 nM
Ac-DECWQCWWLKR-NH2 (lactam 2-10; linker 3-6 via 1,3‑dibromopropan‑2‑one) [Ref 5]	> 1 µM
DESCWQCWWLXR (HELM PEPTIDE1{D.E.S.C.W.Q.C.W.W.L.[Dab].R.[am]}|CHEM1{[O=C(C[*:1])C[*:2]]}$PEPTIDE1,PEPTIDE1,2:R3-11:R3|PEPTIDE1,CHEM1,4:R3-1:R1|PEPTIDE1,CHEM1,7:R3-1:R2$$$V2.0; SMILES CC(C)C[C@@H]1NC(=O)[C@H](Cc2c[nH]c3ccccc23)NC(=O)[C@H](Cc2c[nH]c3ccccc23)NC(=O)[C@@H]2CSCC(=O)CSC[C@H](NC(=O)[C@H](CO)NC(=O)[C@@H](NC(=O)[C@@H](N)CC(=O)O)CCC(=O)NCC[C@@H](C(=O)N[C@@H](CCCNC(=N)N)C(N)=O)NC1=O)C(=O)N[C@@H](Cc1c[nH]c3ccccc13)C(=O)N[C@@H](CCC(N)=O)C(=O)N2) [Compound 9]	> 1 µM
[4‑Aminomethyl‑phenylacetyl][Q(pyrrolidin)″]EWQ[Dab][AEF][2Nal][αMeL]E[Dab]-NH2 (lactam N-10, 3-6; SMILES CC(C)C[C@]1(C)NC(=O)[C@H](Cc2ccc3ccccc3c2)NC(=O)[C@H](Cc2ccc(OCCN)cc2)NC(=O)[C@@H]2CCNC(=O)CC[C@H](NC(=O)[C@H](CCC(=O)N3CCCC3)NC(=O)Cc3ccc(cc3)CNC(=O)CC[C@@H](C(=O)N[C@@H](CCN)C(N)=O)NC1=O)C(=O)N[C@@H](Cc1c[nH]c3ccccc13)C(=O)N[C@@H](CCC(N)=O)C(=O)N2) [Compound 145]	22.7 nM
[4‑Aminomethyl‑phenylacetyl]IEWQ[Dab][AEF][2Nal][αMeV]E[Dab][3Pal]-NH2 (lactam (positions not given here); lactam 3-6; not fully specified (bridges); printed as [4-Aminomethyl-phenylacetyl](1c)*IE(2c)WQ[Dab](2c)[Y(2-aminoethoxy)][2-Nal][2-Me-Val]E(1c)[Dab][3-(3-Pyridyl)-Ala]-[NH2]) [Compound 157]	0.0318 nM
[4‑Aminomethyl‑phenylacetyl]IEWQ[Dab][AEF][Phe(3,4-Me2)][αMeV]EG[3Pal]-NH2 (lactam (positions not given here); lactam 3-6; not fully specified (bridges); printed as [4-Aminomethyl-phenylacetyl](1c)*IE(2c)WQ[Dab](2c)[Y(2-aminoethoxy)][F(3,4-Me)][2-Me-Val]E(1c)G[3-(3-Pyridyl)-Ala]-[NH2]) [Compound 158]	0.635 nM
[3Amb]SCWQC[AEF][2Nal][αMeL]ER[3‑Amino‑3‑(3'-pyridyl)propionyl]-NH2 (lactam (positions not given here); linker 3-6 via 1,3‑dibromopropan‑2‑one(3); not fully specified (bridges); printed as [(3-Aminomethyl)benzoyl](1c)*SC(2a)WQC(2a)][Y(2-aminoethoxy)][2-Nal][2-Me-Leu]E(1c)R[3-Amino-3-(3′-pyridyl)propionyl]-[NH2]) [Compound 151]	10.7 nM
[3Amb]SCWQC[AEF][2Nal][αMeL]ER[Ala(quinolin-3-yl)]-NH2 (lactam (positions not given here); linker 3-6 via 1,3‑dibromopropan‑2‑one(3); not fully specified (bridges); printed as [(3-Aminomethyl)benzoyl](1c)*SC(2a)WQC(2a)][Y(2-aminoethoxy)][2-Nal][2-Me-Leu]E(1c)R[3-(3-Quinolinyl)-Ala]-[NH2]) [Compound 149]	4.82 nM
Ac-DESCWQCWWKR-NH2 (lactam 2-10; linker 4-7 via 1,3‑dibromopropan‑2‑one) [Ref 7]	> 1 µM
DESTWQYWWLKR (HELM PEPTIDE1{D.E.S.T.W.Q.Y.W.W.L.K.R.[am]}$PEPTIDE1,PEPTIDE1,2:R3-11:R3$$$V2.0; SMILES CC(C)C[C@@H]1NC(=O)[C@H](Cc2c[nH]c3ccccc23)NC(=O)[C@H](Cc2c[nH]c3ccccc23)NC(=O)[C@H](Cc2ccc(O)cc2)NC(=O)[C@H](CCC(N)=O)NC(=O)[C@H](Cc2c[nH]c3ccccc23)NC(=O)[C@H]([C@@H](C)O)NC(=O)[C@H](CO)NC(=O)[C@@H](NC(=O)[C@@H](N)CC(=O)O)CCC(=O)NCCCC[C@@H](C(=O)N[C@@H](CCCNC(=N)N)C(N)=O)NC1=O) [Ref 3]	> 1 µM
[4‑Aminomethyl‑phenylacetyl″]SCWQC[AEF][2Nal][αMeL]ER[3Pal]-NH2 (lactam N-10; linker 3-6 via 1,3‑dibromopropan‑2‑one(3)) [Compound 147]	0.0858 nM
[3Amb]IEWQ[Dab][AEF][2Nal][αMeV]E[Dab][3Pal]-NH2 (lactam (positions not given here); lactam 3-6; not fully specified (bridges)) [Compound 156]	0.0857 nM
[4‑Aminomethyl‑phenylacetyl]SEW[Q(pyrrolidin)″][Dab][AEF][2Nal][αMeL]E[Dab]-NH2 (lactam N-10, 3-6; SMILES CC(C)C[C@]1(C)NC(=O)[C@H](Cc2ccc3ccccc3c2)NC(=O)[C@H](Cc2ccc(OCCN)cc2)NC(=O)[C@@H]2CCNC(=O)CC[C@H](NC(=O)[C@H](CO)NC(=O)Cc3ccc(cc3)CNC(=O)CC[C@@H](C(=O)N[C@@H](CCN)C(N)=O)NC1=O)C(=O)N[C@@H](Cc1c[nH]c3ccccc13)C(=O)N[C@@H](CCC(=O)N1CCCC1)C(=O)N2) [Compound 146]	41.5 nM
Ac-DESCWCWWLKR-NH2 (lactam 2-10; linker 4-6 via 1,3‑dibromopropan‑2‑one) [Ref 6]	> 1 µM
DESSWQSWWLKR (HELM PEPTIDE1{D.E.S.S.W.Q.S.W.W.L.K.R.[am]}$PEPTIDE1,PEPTIDE1,2:R3-11:R3$$$V2.0; SMILES CC(C)C[C@@H]1NC(=O)[C@H](Cc2c[nH]c3ccccc23)NC(=O)[C@H](Cc2c[nH]c3ccccc23)NC(=O)[C@H](CO)NC(=O)[C@H](CCC(N)=O)NC(=O)[C@H](Cc2c[nH]c3ccccc23)NC(=O)[C@H](CO)NC(=O)[C@H](CO)NC(=O)[C@@H](NC(=O)[C@@H](N)CC(=O)O)CCC(=O)NCCCC[C@@H](C(=O)N[C@@H](CCCNC(=N)N)C(N)=O)NC1=O) [Ref 2]	> 1 µM
DESMWQMWWLKR (HELM PEPTIDE1{[ac].D.E.S.M.W.Q.M.W.W.L.K.R.[am]}$PEPTIDE1,PEPTIDE1,3:R3-12:R3$$$V2.0; SMILES CSCC[C@@H]1NC(=O)[C@H](CO)NC(=O)[C@@H](NC(=O)[C@H](CC(=O)O)NC(C)=O)CCC(=O)NCCCC[C@@H](C(=O)N[C@@H](CCCNC(=N)N)C(N)=O)NC(=O)[C@H](CC(C)C)NC(=O)[C@H](Cc2c[nH]c3ccccc23)NC(=O)[C@H](Cc2c[nH]c3ccccc23)NC(=O)[C@H](CCSC)NC(=O)[C@H](CCC(N)=O)NC(=O)[C@H](Cc2c[nH]c3ccccc23)NC1=O) [Ref 4]	> 1 µM
